Results as given in the supplement of paper PMC10266784.

B1: library; numbered along this chain (parent)
chain: MAAAAAAAAEQQSSNGPVKKSMREKAVERRSVNKEHNSNFKAGYIPIDEDRLHKTGLRGRKGNLAICVIILLFILAVINLIITLVIWAVIRIGPNGCDSMEFHESGLLRFKQVSDMGVIHPLYKSTVGGRRNENLVITGNNQPIVFQQGTTKLSVENNKTSITSDIGMQFFDPRTQNILFSTDYETHEFHLPSGVKSLNVQKASTERITSNATSDLNIKVDGRAIVRGNEGVFIMGKTIEFHMGGNMELKAENSIILNGSVMVSTTRLPSSSSGDQLGSGDWVRYKLCMCADGTLFKVQVTSQNMGCQISDNPCGNTH

Variants of: B1
Assay: SGCB cell-surface expression functional score (HA stain, bin4 vs bin1, normalised to synonymous) (log10 ratio); higher = more cell-surface SGCB (functional)
Outline: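 The functional score is a log ratio of variant frequency in the highest versus the lowest intensity bin, expressed as a median over codons and duplicate transductions. Codon-saturation libraries of HA-tagged, YFP-fused human beta-sarcoglycan were transduced by lentivirus at MOI <0.1 into HEK293 cells stably expressing alpha-, gamma- and delta-sarcoglycan, and the cells were stained on ice with Alexa Fluor 647 anti-HA, fixed and sorted into four 5% intensity bins before amplicon sequencing. Synonymous variants were scaled to mean 0, SD 0.5 within each section.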

SGCB cell-surface expression functional score (log10) of substitutions, site by site:
S161: Y -0.18 | Q 0.14 | A 0.29 | I -0.06 | H -0.26 | T 0.3 | M -0.34 | W -0.98 | D -0.8 | F -0.36 | E 0.42 | R 0.02 | C -0.11 | K -0.33 | L 0.12 | N -0.84 | V -0.12 | P -1.15 | G 0.01
K159: H -0.05 | D -1.02 | Y -0.79 | T -0.28 | L 0.31 | N -0.03 | A -0.02 | G 0.43 | V -0.09 | S -0.32 | E -0.7 | I 0 | Q -0.09 | P -1.13 | F -0.25 | C -0.02 | R -0.48 | M -0.28 | W -0.05
S154: Y -0.16 | Q -0.7 | C 0.11 | W -0.21 | H -0.24 | V 0.16 | N -0.3 | P -1.03 | T -0.08 | K 0.55 | E -0.33 | L -0.22 | I 0 | M 0.54 | D 0.2 | A 0.26 | R 0.01 | G -0.24 | F -0.49
Q148: N -1.26 | E -0.58 | I -0.28 | V 0.28 | W 0.01 | D -0.54 | K -0.27 | P -1.36 | C 0.39 | A 0.12 | S 0.42 | L -0.18 | R 0.02 | F -0.38 | T 0.08 | H -0.24 | G 0.33 | Y -0.25
F146: C -0.47 | D -1.36 | T -1.45 | A -1.22 | P -1.14 | I 0.28 | K -0.93 | H -0.89 | G -0.94 | R -1.45 | S -0.84 | M -0.56 | L 0.18 | Y -0.75 | E -0.7 | N -1.08 | Q -1.34 | V -0.32 | W -1.15
Q147: H -0.39 | F -0.65 | L -0.21 | M -0.04 | Y -0.42 | S 0.16 | D -0.27 | C 0.5 | K 0.26 | G -0.41 | I -0.06 | E 0.33 | W 0.33 | A 0.19 | T -0.47 | P -0.68 | V 0.26 | R -0.06 | N 0.29
I162: V -0.49 | P -1.25 | E -0.89 | R -1.34 | W 0.05 | K -1.11 | C -1.23 | A -0.52 | M 0.23 | Y -1.43 | G -1.34 | S -1.09 | H -1.02 | L -0.6 | D -1.31 | F -0.81 | Q -0.98 | T -1.07 | N -0.83
V155: K -1.53 | C -0.76 | Q -1.48 | F -0.64 | W -1.19 | N -1.38 | L 0.18 | A -0.56 | I 0.29 | T -1.02 | D -0.85 | M 0.02 | S -1.06 | R -1.45 | H -1.51 | Y -1.9 | E -0.74 | G -1.18 | P -1.4
T151: M -1.13 | A -0.08 | W -1.19 | F -1 | C -0.22 | N -0.56 | R -1.06 | P -0.64 | S 0.27 | V -0.15 | K -0.7 | E -1.31 | H -1.24 | D -1.17 | Q -0.98 | I -0.82 | Y -1 | L -1.22 | G -0.94
N158: T 0.18 | D 0.02 | R -0.6 | G -0.06 | P -0.76 | I -0.21 | S 0.15 | E -0.02 | F -0.06 | A -0.1 | V -0.44 | Q 0.06 | H -0.2 | L -0.11 | W -0.42 | M -0.12 | K -0.26 | Y -0.05 | C 0
G149: A -0.43 | R -0.54 | N 0.19 | T -0.75 | C -0.49 | M -0.18 | F -0.45 | V -0.88 | H -0.28 | P -1.17 | S -0.12 | K -0.63 | E -0.93 | Y -0.57 | L -0.34 | Q -0.01 | I -0.64 | W -0.54 | D -0.25
N157: M 0.06 | H 0.06 | K -0.19 | F -0.21 | R 0.01 | Y 0.04 | S -0.08 | W 0.34 | Q 0.38 | P 0.01 | C 0.02 | V 0.48 | I -0.06 | L 0.19 | T -0.05 | D -0.02 | A 0.08 | G 0.52 | E -0.18
T160: R -1.29 | F -0.15 | P -1.28 | W -0.95 | K -2.03 | A -0.29 | Q -1.26 | V 0.03 | D -1.29 | N -0.8 | H -0.01 | C -0.14 | G -1.29 | L 0.17 | M -1.02 | E -1.3 | I 0.64 | Y -1.13 | S -0.5
T150: Q -0.12 | V -0.25 | G -0.22 | N 0.07 | M -0.99 | F -0.59 | S -0.15 | C 0.25 | W 1.1 | P -0.37 | K -0.14 | A -0.2 | H 0 | Y 0 | L -0.19 | R -0.26 | D 0.59 | E -0.57 | I 0.04
K152: W 0.3 | D -0.66 | M -0.19 | P -0.94 | N -0.11 | C 0.03 | L -0.53 | I 0.14 | Q -0.46 | S -0.23 | H -0.48 | R -0.22 | G -0.57 | T -0.04 | F 0.02 | A 0 | V 0.52 | Y -0.59 | E -0.38
L153: N -1.69 | C -0.34 | P -1.07 | K -1.12 | A -1.08 | T -0.99 | D -1.44 | V -0.65 | G -0.65 | H -1.03 | I -0.17 | W -1.15 | Y -1.24 | M 0.18 | E -0.79 | S -1.03 | F -0.26 | R -1.23 | Q -1.65
E156: M -0.14 | D -0.04 | Q 0.19 | I -0.63 | L -0.43 | N -0.23 | T -0.18 | G -0.23 | W -0.4 | F -0.1 | A -0.03 | Y -0.38 | H -0.39 | C 0.01 | P -0.84 | S -0.22 | V -0.3 | K -0.6 | R -0.38
T163: A -0.32 | C -0.72
V145: Q -0.39 | W -0.57 | N -0.26 | R -0.43 | T 0.04 | M -0.9 | P -1.15 | L -0.09 | Y -0.43 | S -0.31
